Reference: patent US11137400
Positions count from the first letter of the chain named.

T1: Affinity-purified GST-tagged hXBP1s S288A mutant
T1 chain: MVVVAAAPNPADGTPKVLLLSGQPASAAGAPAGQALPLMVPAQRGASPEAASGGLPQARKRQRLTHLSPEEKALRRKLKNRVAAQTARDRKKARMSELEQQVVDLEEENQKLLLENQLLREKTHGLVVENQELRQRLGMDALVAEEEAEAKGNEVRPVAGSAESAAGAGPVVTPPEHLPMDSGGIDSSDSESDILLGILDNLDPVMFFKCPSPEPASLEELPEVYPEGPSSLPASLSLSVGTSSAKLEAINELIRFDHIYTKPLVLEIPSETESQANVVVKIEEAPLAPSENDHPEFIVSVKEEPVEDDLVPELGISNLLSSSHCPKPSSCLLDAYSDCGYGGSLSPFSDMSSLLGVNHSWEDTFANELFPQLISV

T2: Affinity-purified GST-tagged wild type (WT) hXBP1s
T2 chain: T1 chain with A288S

T3: HA tagged hXBP1s (HA-hXBP1s), wild type, expressed in HEK293T cells
T3 chain: T1 chain with A288S

B1: Active recombinant human JNK1α1 (Millipore) (protein)
chain: MSRSKRDNNFYSVEIGDSTFTVLKRYQNLKPIGSGAQGIVCAAYDAILERNVAIKKLSRPFQNQTHAKRAYRELVLMKCVNHKNIIGLLNVFTPQKSLEEFQDVYIVMELMDANLCQVIQMELDHERMSYLLYQMLCGIKHLHSAGIIHRDLKPSNIVVKSDCTLKILDFGLARTAGTSFMMTPYVVTRYYRAPEVILGMGYKENVDLWSVGCIMGEMVCHKILFPGRDYIDQWNKVIEQLGTPCPEFMKKLQPTVRTYVENRPKYAGYSFEKLFPDVLFPADSEHNKLKASQARDLLSKMLVIDASKRISVDEALQHPYINVWYDPSEAEAPPPKIPDKQLDEREHTIEEWKELIYKEVMDLEERTKNGVIRGQPSPLAQVQQ
B2: Active recombinant human JNK3 (Millipore) (protein)
chain: MSLHFLYYCSEPTLDVKIAFCQGFDKQVDVSYIAKHYNMSKSKVDNQFYSVEVGDSTFTVLKRYQNLKPIGSGAQGIVCAAYDAVLDRNVAIKKLSRPFQNQTHAKRAYRELVLMKCVNHKNIISLLNVFTPQKTLEEFQDVYLVMELMDANLCQVIQMELDHERMSYLLYQMLCGIKHLHSAGIIHRDLKPSNIVVKSDCTLKILDFGLARTAGTSFMMTPYVVTRYYRAPEVILGMGYKENVDIWSVGCIMGEMVRHKILFPGRDYIDQWNKVIEQLGTPCPEFMKKLQPTVRNYVENRPKYAGLTFPKLFPDSLFPADSEHNKLKASQARDLLSKMLVIDPAKRISVDDALQHPYINVWYDPAEVEAPPPQIYDKQLDEREHTIEEWKELIYKEVMNSEEKTKNGVVKGQPSPSGAAVNSSESLPPSSSVNDISSMSTDQTLASDTDSSLEASAGPLGCCR
B3: FLAG-β-TrCP1, expressed in HEK293T cells (protein)
chain: MDPAEAVLQEKALKFMCSMPRSLWLGCSSLADSMPSLRCLYNPGTGALTAFQNSSEREDCNNGEPPRKIIPEKNSLRQTYNSCARLCLNQETVCLASTAMKTENCVAKTKLANGTSSMIVPKQRKLSASYEKEKELCVKYFEQWSESDQVEFVEHLISQMCHYQHGHINSYLKPMLQRDFITALPARGLDHIAENILSYLDAKSLCAAELVCKEWYRVTSDGMLWKKLIERMVRTDSLWRGLAERRGWGQYLFKNKPPDGNAPPNSFYRALYPKIIQDIETIESNWRCGRHSLQRIHCRSETSKGVYCLQYDDQKIVSGLRDNTIKIWDKNTLECKRILTGHTGSVLCLQYDERVIITGSSDSTVRVWDVNTGEMLNTLIHHCEAVLHLRFNNGMMVTCSKDRSIAVWDMASPTDITLRRVLVGHRAAVNVVDFDDKYIVSASGDRTIKVWNTSTCEFVRTLNGHKRGIACLQYRDRLVVSGSSDNTIRLWDIECGACLRVLEGHEELVRCIRFDNKRIVSGAYDGKIKVWDLVAALDPRAPAGTLCLRTLVEHSGRVFRLQFDEFQIVSSSHDDTILIWDFLNDPAAQAEPPRSPSRTYTYISR

Columns and labels:
[1] = target: T1, Affinity-purified GST-tagged hXBP1s …
[2] = target: T2, Affinity-purified GST-tagged wild type …
[3] = target: T3, HA tagged hXBP1s (HA-hXBP1s), wild …

Row | Protein | in vitro kinase assay, phosphorylation in the presence of ^32P (autoradiography) [1] | in vitro kinase assay, phosphorylation in the presence of ^32P (autoradiography) [2] | ubiquitination assay (conjugation of MYC-Ub to HA-hXBP1s, anti-HA immunoprecipitation probed with anti-MYC) [3]
1 | B1 | mutation of Ser288 to A abolished JNKs-mediated phosphorylation of hXBP1s | JNK1, JNK2 or JNK3 was sufficient to directly phosphorylate hXBP1s | 
2 | B2 | mutation of Ser288 to A abolished JNKs-mediated phosphorylation of hXBP1s | JNK1, JNK2 or JNK3 was sufficient to directly phosphorylate hXBP1s | 
3 | B3 |  |  | ectopically expressed β-TrCP greatly promoted the conjugation of ubiquitin to HA-hXBP1s
